In patent publication US20240043489A1, “Cytokine Prodrugs Comprising a Cleavable Linker” (Trutino Biosciences Inc., priority 2020, published 2024):
Several values for one entry are separate records, joined by “and”; a condition that tells them apart may be missing. Equal values may be shown once. Read-outs that look alike come from different tables or passages of the source.

How the values were obtained:
[1] = Full-length drug levels in serum by ELISA; format: in vivo, mice
Procedure: (§1) We developed an ELISA assay to detect and quantify fusion proteins comprising IL-2 and IL-2Rα moieties. Wells of a 96-well plate are coated overnight with 100 uL of a rat anti-mouse IL-2 monoclonal antibody (JES6-1A12; ThermoFisher) at […] in PBS. After washing, wells are blocked with TBS/0.05% Tween 20/1% BSA, then fusion proteins and/or unknown biological samples are added for 1 hr at room temperature. After washing, an anti-mouse IL-2Rα biotin-labelled detection antibody (BAF2438, R&D systems) is added and binding is detected using Ultra Strepavidin HRP (ThermoFisher). The ELISA plate was developed by adding the chromogenic tetramethylbenzidine substrate (Ultra TMB, ThermoFisher). The reaction is stopped by addition of 0.5M H2SO4 and the absorbance is read at 450-650 nm.
Additional serum samples collected at Day 17 (Construct B 20 mg/kg) and Day 21 (Construct Y 20 mg/kg), 4 days and 8 days respectively after the last IV injection, were assayed for full-length IL-2 fusion drug.

B16F10 melanoma = experiment: In vivo efficacy of retention linker IL-2 drugs in B16F10 syngeneic model (Example 17); set-up: species or system mice
Procedure: In a first efficacy study, C57BL/6 mice were subcutaneously inoculated with B16F10 melanoma cells and when the average tumor volume reached on average 70-90 mm^3, animals were randomized into 5 groups based on tumor volumes (n=6 mice per treatment group). Mice were dosed intravenously every 3 days (Q3D) for a total of 5 doses according to following design:
In a second efficacy study in the same model, C57BL/6 mice were subcutaneously inoculated with B16F10 melanoma cells and when the average tumor volume reached on average 70-90 mm^3, animals were randomized into 5 groups based on tumor volumes (n=6 mice per treatment group). Mice were dosed intravenously every 3 days (Q3D) for a total of 5 doses according to following design:
On Day 20, mice received an additional dose of drug, animals were sacrificed 24 hrs later and tissues and blood (processed to serum) were collected and stored at −80C for further testing. […] This is most likely due to the higher levels of both circulating drugs in serum and resident drug in TME, which can exert prolonged anti-tumor activity even after an extended dosing holiday.

heparin = experiment: IL-2 fusion protein plate binding assay to Heparin-BSA conjugate; conditions: pH 6 vs pH 7.5, plate assay
Procedure: 96-well plates were coated with 25 ug/mL of Heparin-BSA conjugate (provided by Dr. Mueller, Boerhinger Ingelheim) or control BSA for 18-22 h at room temperature on shaker (350 rpm). After washing, wells are blocked with PBS-0.05% Tween 20/1% BSA for 90 min, then fusion proteins are titrated in 1% BSA/PBS-0.05% Tween 20 pH 7.5 and/or pH 6 and added for 2 hr at room temperature with shaking. After washing, an anti-mouse IL-2 biotin-labelled detection antibody (JES6-5H4, ThermoFisher) is added and binding is detected using Ultra Strepavidin HIRP (ThermoFisher). The plate was developed by adding the chromogenic tetramethylbenzidine substrate (Ultra TMB, ThermoFisher). The reaction is stopped by addition of 0.5M H2SO4 and the absorbance is read at 450-650 nm.

HEK-Blue™ IL-2 cells = experiment: HEK-Blue IL2 reporter assay (SEAP, OD630); format: cell-based; conditions: Table 5C
Procedure: Recombinant MMP9 and/or MMP2 (R&D Systems) was first activated with p-aminophenylmercuric acetate and this activated protease or equivalent amount of activating solution without the protease was used to digest or mock digest the fusion protein for 1 hr, 2 hr, 4 hr and overnight (18-22 hr) at 37 C. Cleavage assays are set up in TCNB buffer: 50 mM Tris, 10 mM CaCl2), 150 mM NaCl, 0.05% Brij-35 (w/v), pH 7.5. Digested protein was aliquoted and stored at −80° C. prior to testing. Aliquots of digests were subsequently analyzed by SDS-PAGE followed by Western blotting to evaluate the extent of cleavage. Digests were also assessed in functional assays such as CTLL-2 proliferation and HEK-Blue Interleukin reporter assays. As shown in FIGS. 2A-E, essentially complete cleavage by MMP9 protease of the fusion proteins with functional site is seen after overnight incubation. In contrast, proteins containing a scrambled MMP cleavage site are not cut (FIG. 2E). HEK-Blue™ IL-2 cells are specifically designed to monitor the activation of the JAK-STAT pathway induced by IL-2. Indeed, stimulation with human or murine IL-2 triggers the JAK/STAT5 pathway and induces secreted embryonic alkaline phosphatase (SEAP) production. SEAP can be readily monitored when using QUANTI-Blue™, a SEAP detection medium. These cells respond to human and murine IL-2. For the HEK Blue assay, untreated and digested samples are titrated and added to 50 000 HEK Blue cells per well in 200 ul medium in a 96-well plate and incubated at 37C in 5% CO2 for 20-24 hr. The following day, levels of SEAP are measured by adding 20 uL of cell supernatant to QuantiBlue reagent, followed by 1-3 h incubation at 37C and reading absorbance at 630 nm. FIGS. 3C-J, 3Q-Y and Table 5B-5C show results obtained from IL2 fusion proteins tested in HEK Blue IL2 assay.

[2] = Drug and IL-2 levels in B16F10 tumor lysates by ELISA; format: in vivo, mice
Procedure: as §1
We developed a second ELISA assay to detect and quantify mouse IL-2 and/or fusion proteins comprising an IL-2 moiety. Wells of a 96-well plate are coated overnight with 100 uL of a rat anti-mouse IL-2 monoclonal antibody (JES6-1A12; ThermoFisher) at […] in PBS. After washing, wells are blocked with TBS/0.05% Tween 20/1% BSA, then fusion proteins and/or unknown biological samples are added for 1 hr at room temperature. After washing, an anti-mouse IL-2 biotin-labelled detection antibody (JES6-5H4, ThermoFisher) is added and binding is detected using Ultra Strepavidin HRP (ThermoFisher). The ELISA plate was developed by adding the chromogenic tetramethylbenzidine substrate (Ultra TMB, ThermoFisher). The reaction is stopped by addition of 0.5M H2SO4 and the absorbance is read at 450-650 nm. This assay is able to simultaneously detect both free mouse IL-2 as well as mouse IL-2 in the context of pro-drug fusion proteins.
We quantified levels of full-length IL2-IL2Ra fusion proteins and IL-2 in tumor samples collected during pre-clinical efficacy studies comparing Construct B and retention linker IL-2 fusion drugs (see example 17).
Tumors (n=3 per group) were collected 24 h after the last dose injection, flash frozen and stored at −80C until further processing. Tumor lysates were generated using tissue extraction reagent (ThermoFisher) supplemented with protease and phosphatase inhibitors and standard techniques and protein concentrations were determined using the BCA assay (Pierce).
Lysates were tested with in-house ELISAs to measure full-length IL-2 fusion proteins (IL-2 capture/IL-2Rα detection) and IL-2 fusion proteins+free IL-2 (IL-2 capture/IL-2 detection). Free IL-2 levels in tumor were calculated by subtracting drug levels from the drug+IL-2 data set. Results were normalized to 1 mg of tumor lysate and mean values are shown in FIG. 15C-H. Levels of Construct CC (20 mg/kg dose) in tumor are roughly 3-fold higher compared to Construct B levels, despite Construct B being dosed at 40 mg/kg (FIG. C). […] Likewise, IL-2 levels in Construct CC, Construct GG and Construct II treated tumors are elevated compared to Construct B treated tumors (FIG. 15E/H). This implies that next generation retention linker technology is able to retain in TME both full-length drug and released IL-2 post-cleavage.

collagen = experiment: IL-2 fusion protein collagen-agarose pulldown (immunoblot quantitation); format: binding
Procedure: To test binding to collagen, a pulldown assay using agarose cross-linked to collagen (Sigma) was performed. IL-2 fusion proteins were incubated with collagen-agarose or control agarose beads for 18-22 h at 4C with gentle rotation in 1% BSA/PBS-0.05% Tween 20. After washing, proteins bound to the beads were eluted by resuspending beads in SDS sample buffer (Life Technologies). Bound proteins were then separated by SDS-PAGE on 4-12% BisTris gradient gel followed by immunoblotting with goat anti-mouse IL-2 polyclonal antibody (AF-402-NA; R&D systems). Donkey Anti-goat RP-conjugated antibody was used for detection (Jackson Immuno Research, West Grove, PA) and the blot was developed using the SuperSignal West Femto Maximum sensitivity detection reagent (ThermoFisher) following the manufacturer's recommendations.

[3] = cleaved with MMP9, read-out: +MMP EC50

Molecule	drug levels in circulation relative to Construct B ([1]; Construct Y 20 mg/kg Day 21 (8 days after last IV) vs Construct B 20 mg/kg Day 17 (4 days after))	TGI (%) D 13 (B16F10 melanoma; 20 mg/kg IV Q3D, 5 doses)	heparin binding (qualitative) (heparin)	EC50 (HEK-Blue™ IL-2 cells; [3]) [nM]	EC50 (HEK-Blue™ IL-2 cells; uncleaved, read-out: −MMP EC50) [nM]	drug level in tumor, comparison in 10 mg/kg dosing cohort ([2]; 10 mg/kg, tumors 24 h after last dose)	IL-2 levels in treated tumors compared to Construct B treated tumors ([2]; free IL-2 calculated by subtraction, 24 h after last dose)	Bound (collagen; blot quantitation, collagen-agarose bound fraction)	Normalized (collagen; bound fraction relative to Construct B (fold))	Bound (% input) (collagen; fraction bound to collagen-agarose) [%]	binding to collagen-agarose beads vs control agarose beads (collagen; pulldown 18-22 h at 4C)	drug levels in serum relative to Construct B ([1]; 10 mg/kg cohort, 24 hrs after dosing)	TGI (%) D 15 (B16F10 melanoma; 10 mg/kg IV Q3D, 5 doses)	TGI (%) D 20 (B16F10 melanoma; 10 mg/kg, 7 days following the fifth dose) [%]
Construct Y: SEQ ID NO 809: m IL2(C140S)-VRIQRKKEKMKET-MMPcs1-2x(G4S)-mIL2Ra (1-215)-mu IgG1 Fc (protein) APTSSSTSSSTAEAQQQQQQQQQQQQHLEQLLMDLQELLSRMENYRNLKLPRMLTFKFYLPKQATELKDLQCLEDELGPLRHVLDLTQSKSFQLEDAENFISNIRVTVVKLKGSDNTFECQFDDESATVVDFLRRWIAFSQSIISTSPQVRIQRKKEKMKETGPLGVRGGGGGSGGGGSELCLYDPPEVPNATFKALSYKNGTILNCECKRGFRRLKELVYMRCLGNSWSSNCQCTSNSHDKSRKQVTAQLEHQKEQQTTTDMQKPTQSMHQENLTGHCREPPPWKHEDSKRIYHFVEGQSVHYECIPGYKALQRGPAISICKMKCGKTGWTQPQLTCVDEREHHRFLASEESQGSRNSSPESETSCPITTTDFPQPTETTAMTETFVLTMEYKIEGRMDGCKPCICTVPEVSSVFIFPPKPKDVLTITLTPKVTCVVVDISKDDPEVQFSWFVDDVEVHTAQTQPREEQFNSTFRSVSELPIMHQDWLNGKEFKCRVNSAAFPAPIEKTISKTKGRPKAPQVYTIPPPKEQMAKDKVSLTCMITDFFPEDITVEWQWNGQPAENYKNTQPIMDTDGSYFVYSKLNVQKSNWEAGNTFTCSVLHEGLHNHHTEKSLSHSPGK	more than 10 fold	77% and 76.59%	bind heparin in dose-dependent manner and with higher affinity than Construct B	0.0109	1.23	–	–	–	–	–	–	–	–	–
Construct GG: SEQ ID NO 817: m IL2-SGG-KLWVLPK-MMPcs1-2x(G4S)-mIL2Ra(1-215)-mu IgG1 Fc (protein) APTSSSTSSSTAEAQQQQQQQQQQQQHLEQLLMDLQELLSRMENYRNLKLPRMLTFKFYLPKQATELKDLQCLEDELGPLRHVLDLTQSKSFQLEDAENFISNIRVTVVKLKGSDNTFECQFDDESATVVDFLRRWIAFCQSIISTSPQSGGKLWVLPKGPLGVRGGGGGSGGGGSELCLYDPPEVPNATFKALSYKNGTILNCECKRGFRRLKELVYMRCLGNSWSSNCQCTSNSHDKSRKQVTAQLEHQKEQQTTTDMQKPTQSMHQENLTGHCREPPPWKHEDSKRIYHFVEGQSVHYECIPGYKALQRGPAISICKMKCGKTGWTQPQLTCVDEREHHRFLASEESQGSRNSSPESETSCPITTTDFPQPTETTAMTETFVLTMEYKGCKPCICTVPEVSSVFIFPPKPKDVLTITLTPKVTCVVVDISKDDPEVQFSWFVDDVEVHTAQTQPREEQFNSTFRSVSELPIMHQDWLNGKEFKCRVNSAAFPAPIEKTISKTKGRPKAPQVYTIPPPKEQMAKDKVSLTCMITDFFPEDITVEWQWNGQPAENYKNTQPIMDTDGSYFVYSKLNVQKSNWEAGNTFTCSVLHEGLHNHHTEKSLSHSPGK	–	–	–	0.0072	0.14	highest levels	elevated	5191	2.5	0.7	specifically bound by collagen-agarose beads	roughly 5 fold	57% and 57.18%	64.70
